The record followed here is the supplement of paper PMC5998384.

In series [1] the test system is HeLa Kyoto. The series is described as follows: solubility change mitosis vs G1/S (difference of NP-40 vs SDS log2 ratios) (log2 ratio difference); higher = more soluble in mitosis.
For series [2], the system named is HeLa Kyoto. The series is described as follows: solubility in G1/S (NP-40 vs SDS abundance) (log2 ratio); higher = more soluble. Conditions: cell cycle stage: G1/S.
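Throughout, for solubility change mitosis vs G1/S (difference of NP-40 vs SDS log2 ratios): synchronized HeLa Kyoto cells (double thymidine block for G1/S, nocodazole release for mitosis), protein amounts in NP-40 versus SDS lysates quantified by mass spectrometry, three biological replicates.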
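Throughout, for solubility in G1/S (NP-40 vs SDS abundance): HeLa Kyoto cells arrested at G1/S by double thymidine block, proteins quantified by TMT10plex mass spectrometry in mild NP-40 versus SDS extracts, three biological replicates.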

Regarding “MAKSNGENGPRAPAAGESLSGTRESLAQGPDAATTDELSSLGSDSEANGFAERRIDKFGFIVGSQGAEGALEEVPLEVLRQRESKWLDMLNNWDKWMAKKHKKIRLRCQKGIPPSLRGRAWQYLSGGKVKLQQNPGKFDELDMSPGDPKWLDVIERDLHRQFPFHEMFVSRGGHGQQDLFRVLKAYTLYRPEEGYCQAQAPIAAVLLMHMPAEQAFWCLVQICEKYLPGYYSEKLEAIQLDGEILFSLLQKVSPVAHKHLSRQKIDPLLYMTEWFMCAFSRTLPWSSVLRVWDMFFCEGVKIIFRVGLVLLKHALGSPEKVKACQGQYETIERLRSLSPKIMQEAFLVQEVVELPVTERQIEREHLIQLRRWQETRGELQCRSPPRLHGAKAILDAEPGPRPALQPSPSIRLPLDAPLPGSKAKPKPPKQAQKEQRKQMKGRGQLEKPPAPNQAMVVAAAGDACPPQHVPPKDSAPKDSAPQDLAPQVSAHHRSQESLTSQESEDTYL [TBC1D10A]”, in the series with HeLa Kyoto [1], the “solubility change mitosis (log2)” value was -0.147. Also, in the series with HeLa Kyoto [2], the “solubility in G1/S (log2)” value is 0.438.
With “MALEGMSKRKRKRSVQEGENPDDGVRGSPPEDYRLGQVASSLFRGEHHSRGGTGRLASLFSSLEPQIQPVYVPVPKQTIKKTKRNEEEESTSQIERPLSQEPAKKVKAKKKHTNAEKKLADRESALASADLEEEIHQKQGQKRKNSQPGVKVADRKILDDTEDTVVSQRKKIQINQEEERLKNERTVFVGNLPVTCNKKKLKSFFKEYGQIESVRFRSLIPAEGTLSKKLAAIKRKIHPDQKNINAYVVFKEESAATQALKRNGAQIADGFRIRVDLASETSSRDKRSVFVGNLPYKVEESAIEKHFLDCGSIMAVRIVRDKMTGIGKGFGYVLFENTDSVHLALKLNNSELMGRKLRVMRSVNKEKFKQQNSNPRLKNVSKPKQGLNFTSKTAEGHPKSLFIGEKAVLLKTKKKGQKKSGRPKKQRKQK [RBM34]”, the “solubility change mitosis (log2)” value in the series on HeLa Kyoto [1] amounted to 1.46. Also, in the series on HeLa Kyoto [2], the “solubility in G1/S (log2)” value was -2.26.
Regarding “MALKGRALYDFHSENKEEISIQQDEDLVIFSETSLDGWLQGQNSRGETGLFPASYVEIVRSGISTNHADYSSSPAGSPGAQVSLYNSPSVASPARSGGGSGFLSNQGSFEEDDDDDWDDWDDGCTVVEEPRAGGLGTNGHPPLNLSYPGAYPSQHMAFRPKPPLERQDSLASAKRGSVVGRNLNRFSCFVRSGVEAFILGDVPMMAKIAETYSIEMGPRGPQWKANPHPFACSVEDPTKQTKFKGIKSYISYKLTPTHAASPVYRRYKHFDWLYNRLLHKFTVISVPHLPEKQATGRFEEDFIEKRKRRLILWMDHMTSHPVLSQYEGFQHFLSCLDDKQWKMGKRRAEKDEMVGASFLLTFQIPTEHQDLQDVEDRVDTFKAFSKKMDDSVLQLSTVASELVRKHVGGFRKEFQKLGSAFQAISHSFQMDPPFCSEALNSAISHTGRTYEAIGEMFAEQPKNDLFQMLDTLSLYQGLLSNFPDIIHLQKGAFAKVKESQRMSDEGRMVQDEADGIRRRCRVVGFALQAEMNHFHQRRELDFKHMMQNYLRQQILFYQRVGQQLEKTLRMYDNL [SNX33]”, in the series on HeLa Kyoto [1], the “solubility change mitosis (log2)” value was -0.033. In addition, the “solubility in G1/S (log2)” value in the series with HeLa Kyoto [2] was -0.337.
Regarding “MALMQELYSTPASRLDSFVAQWLQPHREWKEEVLDAVRTVEEFLRQEHFQGKRGLDQDVRVLKVVKVGSFGNGTVLRSTREVELVAFLSCFHSFQEAAKHHKDVLRLIWKTMWQSQDLLDLGLEDLRMEQRVPDALVFTIQTRGTAEPITVTIVPAYRALGPSLPNSQPPPEVYVSLIKACGGPGNFCPSFSELQRNFVKHRPTKLKSLLRLVKHWYQQYVKARSPRANLPPLYALELLTIYAWEMGTEEDENFMLDEGFTTVMDLLLEYEVICIYWTKYYTLHNAIIEDCVRKQLKKERPIILDPADPTLNVAEGYRWDIVAQRASQCLKQDCCYDNRENPISSWNVKRARDIHLTVEQRGYPDFNLIVNPYEPIRKVKEKIRRTRGYSGLQRLSFQVPGSERQLLSSRCSLAKYGIFSHTHIYLLETIPSEIQVFVKNPDGGSYAYAINPNSFILGLKQQIEDQQGLPKKQQQLEFQGQVLQDWLGLGIYGIQDSDTLILSKKKGEALFPAS [OASL]”, in the series on HeLa Kyoto [1], the “solubility change mitosis (log2)” value was 0.156. In the series with HeLa Kyoto [2], the “solubility in G1/S (log2)” value was -0.811.
